Columns and labels:
[1] = molecular target: T1, MenDRA2 (MenD-RIAD-RIAD with two sequential RIAD peptide tags) (E. coli); assay: SEC; 1.5 mg of enzyme fused with RIAD mixed with two-fold molar excess of enzyme fused with RIDD in Tris buffer pH 7.8, 1 mM EDTA, 0.02% Tween-20, no incubation; Superdex 200 10/300 GL, 0.4 mL/min, Tris pH 7.8, 50 mM NaCl; masses from a calibration curve
T1 sequence (P17109 whole entry, looked up): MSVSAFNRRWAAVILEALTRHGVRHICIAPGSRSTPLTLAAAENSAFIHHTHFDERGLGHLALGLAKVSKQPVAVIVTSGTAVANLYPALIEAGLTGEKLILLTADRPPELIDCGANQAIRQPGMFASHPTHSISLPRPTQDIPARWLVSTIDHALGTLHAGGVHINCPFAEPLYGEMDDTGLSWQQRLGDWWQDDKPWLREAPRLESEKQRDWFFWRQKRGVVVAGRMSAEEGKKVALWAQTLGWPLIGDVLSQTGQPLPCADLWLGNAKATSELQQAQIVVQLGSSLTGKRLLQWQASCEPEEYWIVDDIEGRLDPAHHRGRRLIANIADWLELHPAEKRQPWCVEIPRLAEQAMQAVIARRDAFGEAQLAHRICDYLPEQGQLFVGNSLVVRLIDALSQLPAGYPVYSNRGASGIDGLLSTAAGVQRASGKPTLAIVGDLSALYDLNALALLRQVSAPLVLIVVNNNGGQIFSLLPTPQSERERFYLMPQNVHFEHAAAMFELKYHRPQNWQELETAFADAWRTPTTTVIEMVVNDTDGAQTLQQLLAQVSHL

[2] = molecular target: T2, MenDRA (MenD-RIAD with one RIAD peptide tag) (E. coli); assay: as above
T2 sequence (P17109 whole entry, looked up): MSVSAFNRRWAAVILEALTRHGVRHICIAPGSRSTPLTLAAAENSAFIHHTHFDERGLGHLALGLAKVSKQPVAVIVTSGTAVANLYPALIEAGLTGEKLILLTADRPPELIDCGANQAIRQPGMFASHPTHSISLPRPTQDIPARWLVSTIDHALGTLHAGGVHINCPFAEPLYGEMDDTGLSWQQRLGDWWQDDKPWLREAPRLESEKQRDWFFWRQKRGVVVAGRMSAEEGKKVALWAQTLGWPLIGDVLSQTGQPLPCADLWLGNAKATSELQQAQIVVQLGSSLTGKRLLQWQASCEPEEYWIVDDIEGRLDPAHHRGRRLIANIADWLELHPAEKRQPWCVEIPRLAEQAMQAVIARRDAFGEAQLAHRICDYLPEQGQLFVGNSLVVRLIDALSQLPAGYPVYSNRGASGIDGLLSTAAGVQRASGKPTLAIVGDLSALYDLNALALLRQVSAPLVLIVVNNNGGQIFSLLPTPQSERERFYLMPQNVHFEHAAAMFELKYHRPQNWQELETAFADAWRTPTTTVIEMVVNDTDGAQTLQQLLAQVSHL

B1: MenHRD (MenH-RIDD with one RIDD peptide tag), P10644 1-44 (enzyme)
chain: MILHAQAKHGKPGLPWLVFLHGFSGDCHEWQEVGEAFADYSRLYVDLPGHGGSAAISVDGFDDVTDLLRKTLVSYNILDFWLVGYSLGGRVAMMAACQGLAGLCGVIVEGGHPGLQNAEQRAERQRSDRQWVQRFLTEPLTAVFADWYQQPVFASLNDDQRRELVALRSNNNGATLAAMLEATSLAVQPDLRANLSARTFAFYYLCGERDSKFRALAAELAADCHVIPRAGHNAHRENPAGVIASLAQILRFGGGGSGGGGSGGGGSSLRECELYVQKHNIQALLKDSIVQLCTARPERPMAFLREYFEKLEKEEAK
modifications: not checked
stoichiometry N (MenH per 4 MenD (per particle)) [1]: 16
stoichiometry N (MenH per 4 MenD (per particle)) [2]: 8

Reference: PMC6751169
